Measurements from paper PMC6208778, “eIF2A, an initiator tRNA carrier refractory to eIF2α kinases, functions synergistically with eIF5B” (Cellular and Molecular Life Sciences: CMLS, 2018).

B1: GST–eIF2A (462–501) (domain or fragment, human, UniProt Q9BY44 462-501, looked up)
chain: HEEEPPQNMKPQSGNDKPLSKTALKNQRKHEAKKAAKQEA
notes: also called M domain; source: E. coli BL21, purified
B2: His-tagged eIF2A (natural protein, human, UniProt Q9BY44 1-585, looked up)
chain: MAPSTPLLTVRGSEGLYMVNGPPHFTESTVFPRESGKNCKVCIFSKDGTLFAWGNGEKVNIISVTNKGLLHSFDLLKAVCLEFSPKNTVLATWQPYTTSKDGTAGIPNLQLYDVKTGTCLKSFIQKKMQNWCPSWSEDETLCARNVNNEVHFFENNNFNTIANKLHLQKINDFVLSPGPQPYKVAVYVPGSKGAPSFVRLYQYPNFAGPHAALANKSFFKADKVTMLWNKKATAVLVIASTDVDKTGASYYGEQTLHYIATNGESAVVQLPKNGPIYDVVWNSSSTEFCAVYGFMPAKATIFNLKCDPVFDFGTGPRNAAYYSPHGHILVLAGFGNLRGQMEVWDVKNYKLISKPVASDSTYFAWCPDGEHILTATCAPRLRVNNGYKIWHYTGSILHKYDVPSNAELWQVSWQPFLDGIFPAKTITYQAVPSEVPNEEPKVATAYRPPALRNKPITNSKLHEEEPPQNMKPQSGNDKPLSKTALKNQRKHEAKKAAKQEARSDKSPDLAPTPAPQSTPRNTVSQSISGDPEIDKKIKNLKKKLKAIEQLKEQAATGKQLEKNQLEKIQKETALLQELEDLELGI
notes: eukaryotic initiation factor 2A (eIF2A); also called His–eIF2A; eukaryotic initiation factor 2A; source: E. coli M15 (plasmid pQE31/His–eIF2A), purified

Key:
[1] = molecular target: T1, His-tagged eIF5B (587–1220) (UniProt O60841 587-1220); experiment: co-IP; purified His-tagged eIF5B (587–1220) and GST-fused eIF2A (462–501) mixed; the former precipitated with an anti-His-conjugated resin; western blotting with anti-GST; settings: both partners purified
T1 construct: eIF5B, residues 587–1220; The methods describe only the GST-fused eIF5B; also called purified eIF5B; source: purified
T1 sequence (looked up): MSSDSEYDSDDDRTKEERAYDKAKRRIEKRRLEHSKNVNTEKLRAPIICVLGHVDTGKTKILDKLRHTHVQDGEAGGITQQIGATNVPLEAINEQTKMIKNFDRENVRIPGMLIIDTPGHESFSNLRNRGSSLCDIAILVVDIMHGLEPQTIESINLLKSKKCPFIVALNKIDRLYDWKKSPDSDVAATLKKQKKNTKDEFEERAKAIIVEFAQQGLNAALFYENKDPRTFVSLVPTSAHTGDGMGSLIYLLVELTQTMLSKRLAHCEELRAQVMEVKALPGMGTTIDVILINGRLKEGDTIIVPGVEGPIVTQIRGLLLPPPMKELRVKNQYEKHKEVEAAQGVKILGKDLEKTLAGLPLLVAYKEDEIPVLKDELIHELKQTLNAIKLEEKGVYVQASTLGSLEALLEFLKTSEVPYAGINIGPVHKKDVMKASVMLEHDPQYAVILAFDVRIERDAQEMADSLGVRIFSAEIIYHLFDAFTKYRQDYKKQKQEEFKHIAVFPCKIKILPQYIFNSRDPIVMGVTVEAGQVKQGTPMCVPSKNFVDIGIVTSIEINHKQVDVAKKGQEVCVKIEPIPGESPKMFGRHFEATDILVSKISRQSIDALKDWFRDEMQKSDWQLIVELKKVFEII

[2] = molecular target: T2, GST-fused ΔeIF5B(587–1220) (UniProt O60841 587-1220); experiment: pull-down; GST pull-down with recombinant proteins purified from E. coli extracts; GST fusions as bait, His–eIF2A detected by western blotting with anti-His; settings: both partners purified
T2 construct: eukaryotic initiation factor 5B (eIF5B), residues 587–1220, lacking the N-terminal region; also called GST–eIF5B; GST–eIF5B (587–1220); source: E. coli BL21, purified
T2 sequence (looked up): T1 sequence (looked up)

Binder	binding result [1]	binding result [2]
B1	binds	
B2		binds
